Experimental findings from article PMC13391367 (Nature, 2025) are described below.

The star is where a group is joined. Biotin = O=C1N[C@H]2[C@H](CS[C@H]2CCCCC(=O)*)N1; fluorescein = fluorescein label

The target of this test is T1, LENG8(283–346) (human, UniProt Q96PV6 283-346).
T1 construct: LENG8, human, residues 283–346 (conserved helical region N-terminal to the SAC3 domain); also called LENG8^283–346 WT; source: recombinant
T1 sequence (looked up): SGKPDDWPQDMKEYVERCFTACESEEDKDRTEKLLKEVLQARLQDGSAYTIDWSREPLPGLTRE
The experiment in a line: pull-down; biotinylated, fluorescein-labelled ZFC3H1 peptide (200 µg) on magnetic streptavidin beads; 15 μg LENG8(283–346) or its F301A mutant added, 60 min at 4 °C; 25 mM HEPES pH 7.9, 100 mM NaCl, 5% glycerol, 1 mM MgCl2, 1 mM TCEP, 0.01% Igepal CA-630; glycine pH 2.5 elution; Coomassie and fluorescein imaging. As to conditions: both partners purified.

B1: Biotin-ZFC3H1^728–752 wild-type peptide, C-terminal fluorescein (peptide, UniProt O60293 728-752, looked up)
peptide: Biotin-NSVFGGLESMIKEARRTAEQASKPK-fluorescein
notes: ZFC3H1, human, residues 728–752; also called ZFC3H1 peptide WT
Turning to B1, the binding result is “binds”.
